Like-named read-outs stand apart in the source and are kept apart here.
B1: P3-C7 L7H1-3 (bispecific antibody)
heavy 1: not shown
light 1: DVVMTQTPLSLPVTPGEPASISCRSSQSLVHSNQNTYLHWYLQKPGQSPQLLIYKVSNRFSGVPDRFSGSGSRTDFTLKISRVEAEDVGVYYCSQSTHVPYTFGGGTKVEIKGGGGSGIPPKIECLPIDISIDEGKVLTVASAFTGEPTPEVTWSTGGRKIHSQEQGRFHIENTDDSTTLTIKDVQKQDGGLYTLTLRNEFGSDSATVNIHIRSI
heavy 2: not shown
light 2: not shown
B2: 1608-BsAb (bispecific antibody)
chain 1: DIQLTQSPSSLSASVGDRVTITCRASESVDYYGSSLLQWYQQKPGKAPKLLIYAASKLASGVPSRFSGSGSGTDFTLTISSLQPEDFATYYCQQTRKAYTFGQGTKLEIKGGGSGGGGEVQLVESGGGLVQPGGSLRLSCAASGFTFSDYYMTWVRQAPGKGLEWVAFIRNQARGYTSDHNPSVKGRFTISRDNAKNSLYLQMNSLRAEDTAVYYCARDRPSYYVLDYWGQGTTVTVSSGCPPCPAPEAAGAPSVFLFPPKPKDTLMISRTPEVTCVVVDVSHEDPEVKFNWYVDGVEVHNAKTKPREEQYNSTYRVVSVLTVLHQDWLNGKEYKCKVSNKALPAPIEKTISKAKGQPREPQVCTLPPSREEMTKNQVSLWCLVKGFYPSDIAVEWESNGQPENNYKTTPPVLDSDGSFFLYSKLTVDKSRWQQGNVFSCSVMHEALHNHYTQKSLSLSPG
chain 2: DIQMTQSPSSLSASVGDRVTITCTSSQSLFNVRSQKNYLAWYQQKPGKAPKLLIYWASTRESGVPSRFSGSGSGTDFTLTISSLQPEDFATYYCKQSYDLFTFGGGTKVEIKGGGGSGGGGEVQLVESGGGLVQPGGSLRLSCAASGFTFSSYWMHWVRQAPGKGLEWIGEIKPSNELTNVHEKFKDRFTISVDKAKNSAYLQMNSLRAEDTAVYYCTRTITTTEGYWFFDVWGQGTLVTVSSGCPPCPAPEAAGAPSVFLFPPKPKDTLMISRTPEVTCVVVDVSHEDPEVKFNWYVDGVEVHNAKTKPREEQYNSTYRVVSVLTVLHQDWLNGKEYKCKVSNKALPAPIEKTISKAKGQPREPQVYTLPPCREEMTKNQVSLSCAVKGFYPSDIAVEWESNGQPENNYKTTPPVLDSDGSFFLVSKLTVDKSRWQQGNVFSCSVMHEALHNHYTQKSLSLSPG
B3: M42 CHI (antibody, human IgG1, kappa, V domains shown)
VH: QIQLKQSGPGLVQPSQSLSITCTVSGFSLTSYAVHWVRQSPGKGLEWLGVIWTGGNTRSNAAFMSRLTITKDNSKSQVFFKMNSLQADDTAIYFCAKNSLLDYAMDYWGQGTSVTVSS
VL: ENVLTQSPVIMSASPGEKVTMTCRASSFVGSGYLHWYQQKSGASPKLWIYSTSKLASGVPARFSGSGSGTSFFLTISRVEIEDAAAYYCQQSSGYPLTFGGGSKLEIKR
notes: chimeric
B4: 146 L1H1-2 (bispecific antibody)
heavy 1: not shown
light 1: not shown
heavy 2: EFQLVQSGAEVKKPGASVKVSCKASGYSFTDYNMNWVRQAPGQRLEWMGLINPKYGTTNYNQKFKGRVTLTVDQSSSTAYMELSSLRSEDTAVYYCARDNYPAWFAYWGQGTTVTVSSGGGGSSGAPRFLTRPKASVVSVGKDATLSCQIVGNPFPQVSWEKDKQPVTAGVRFRLAQDGDLYRLKILDLQLSDSGQYVCRARNAHGEAFACLGLQVDAEADKTHTCPPCPAPEAAGGPSVFLFPPKPKDTLMISRTPEVTCVVVDVSHEDPEVKFNWYVDGVEVHNAKTKPREEQYNSTYRVVSVLTVLHQDWLNGKEYKCKVSNKALPAPIEKTISKAKGQPREPQVCTLPPSREEMTKNQVSLSCAVKGFYPSDIAVEWESNGQPENNYKTTPPVLDSDGSFFLVSKLTVDKSRWQQGNVFSCSVMHEALHNHYTQKSLSLSPGK
light 2: EIVLTQSPATLSLSPGERATLSCSASSSLNYMYWYQQKPGSSPRPWIYRTSQLASGVPARFSGSGSGTDYTLTISSLEPEDFAVYYCQQYHSYPPTFGGGTKVEIKGGGGSGIPPKIECLPIDISIDEGKVLTVASAFTGEPTPEVTWSTGGRKIHSQEQGRFHIENTDDSTTLTIKDVQKQDGGLYTLTLRNEFGSDSATVNIHIRSI
notes: GUCY2C-CD3, Format 2, CD3 arm S107E
B5: 81 L3H1-2 (N103QN106Q) (bispecific antibody)
heavy 1: not shown
light 1: not shown
heavy 2: EVQLVQSGAEVKKPGASVKVSCKASGYTFTDHNMNWVKQAPGQRLEWMGVMNPKFGTINYNQKFKDKATITRDTSASTAYMELSSLRSEDTAVYYCARDNYPNYFDYWGQGTTVTVSSGGGGSSGAPRFLTRPKASVVSVGKDATLSCQIVGNPFPQVSWEKDKQPVTAGVRFRLAQDGDLYRLKILDLQLSDSGQYVCRARNAHGEAFACLGLQVDAEADKTHTCPPCPAPEAAGGPSVFLFPPKPKDTLMISRTPEVTCVVVDVSHEDPEVKFNWYVDGVEVHNAKTKPREEQYNSTYRVVSVLTVLHQDWLNGKEYKCKVSNKALPAPIEKTISKAKGQPREPQVCTLPPSREEMTKNQVSLSCAVKGFYPSDIAVEWESNGQPENNYKTTPPVLDSDGSFFLVSKLTVDKSRWQQGNVFSCSVMHEALHNHYTQKSLSLSPGK
light 2: DIQLTQSPSFLSASPGDRVTITCSASSSVNYMYWYQQKPGSSPKSWIYRTSNLASGVPSRFSGSGSGTEYTLTISSLQPEDFATYYCQQYHDYPPTFGGGTKVEIKGGGGSGIPPKIECLPIDISIDEGKVLTVASAFTGEPTPEVTWSTGGRKIHSQEQGRFHIENTDDSTTLTIKDVQKQDGGLYTLTLRNEFGSDSATVNIHIRSI
B6: M61 CHI (antibody, human IgG1, kappa, V domains shown)
VH: EVQLQQSGPELVRPGASVKISCTASGYTITDYYMSWVKQSHGKSPEWIGDINPNNGGTSDNQKFKGKATLTVDKSSSTAYMEYRSLTSEDSAVYYCARGRGMVARYFDIWGTGTTVTVSS
VL: EILLTQSPTTMAASPGEKITITCSASSSISSNFLHWYQEKPGFSPKLLIYRTSNLASGVPARFSGSGSGTSYSLTIGSMEAEDVATYYCQQGSGLPLTFGAGTKLELKR
notes: chimeric

Key:
[1] = target: T1, Human GUCY2C protein on cells (HCT116/hGUCY2C, HT-55, T84, LS1034, LS174T) (human, UniProt P25092 24-1073); assay: cell-based or functional assay
hGUCY2C ECD-His [2] = target: T2, hGUCY2C ECD-His (human, UniProt P25092 24-430); assay: ELISA, antigen on streptavidin plate
T2 construct: also called human GUCY2C protein
Experimental: In this test example, the binding activity of the GUCY2C-CD3 bispecific antibodies for human GUCY2C was detected by ELISA. The specific procedures are as follows:
The plate was coated by adding 100 ng of streptavidin (ACRO #STN-N5116) to the reaction wells and incubated overnight at 4° C. After the blocking with 1% BSA (PBS), 100 ng of hGUCY2C ECD-His was added, and the mixture was incubated at 37° C. for 1 h. After plate washing, the gradiently diluted antibody was added, and the mixture was incubated at 37° C. for 1 h. […] After plate washing, a substrate solution was added, and a stop solution was then added after sufficient color development to stop the reaction. The signal values at […] were read using a microplate reader.

[3] = target: T1, Human GUCY2C protein on cells …; assay: flow cytometry on HCT116/hGUCY2C cells, R-PE goat anti-human IgG secondary antibody
Experimental: Experiment 1: 1E5 cells resuspended in 1% BSA were added to the reaction wells, and the supernatant was removed after centrifugation. Diluted antibody of the corresponding concentration was added, and the mixture was incubated at room temperature for 30 min and then washed twice with 1% BSA. […] After the plate was washed twice with 10% BSA, fluorescence signals were read using a flow cytometer.

hGUCY2C ECD-His [4] = target: T2, hGUCY2C ECD-His; assay: SPR Biacore, antibody captured
[5] = target: T1, Human GUCY2C protein on cells …; assay: flow cytometry on T84 cells, PE anti-human IgG Fc secondary antibody
[6] = target: T1, Human GUCY2C protein on cells …; assay: cell-based or functional assay; remark: listed apart in the source
[7] = target: T1, Human GUCY2C protein on cells …; assay: cell-based or functional assay; remark: listed apart in the source

Binder	EC50 (hGUCY2C ECD-His [2]) [nM]	Kd (hGUCY2C ECD-His [4]) [nM]	koff (hGUCY2C ECD-His [4]) [s⁻¹]	kon (hGUCY2C ECD-His [4]) [M⁻¹ s⁻¹]	EC50 (read off the curve) [5] [nM]	further results
B1						IC50 (nM), killing of LS174T with PBMC [1]: 0.49 nM
B2	1.23					EC50 (read off the curve) [3]: ~1 nM
B3		8.99	0.000335	37300	~0.5	
B4	0.06					IC50 (nM), killing of HT-55(++) with PBMC [6]: 0.56 nM; IC50 (nM), killing of LS174T(+) with PBMC [6]: 0.49 nM; IC50 (nM), killing of LS1034(+++) with PBMC [6]: 0.17 nM
B5						IC50 (nM), killing of LS174T with PBMC [7]: 0.16 nM
B6		4.49	0.000228	50800	~2	

From patent publication US20260028421A1 (JIANGSU HENGRUI PHARMACEUTICALS, published 2026)
